Patent publication US20240301385, “DNA MODIFYING ENZYMES AND ACTIVE FRAGMENTS AND VARIANTS THEREOF AND METHODS OF USE” (LIFEEDIT THERAPEUTICS, INC., published 2024)

B1: SGN000169 sgRNA ; SGN000169 target (ssRNA ; dsDNA)
RNA: CACAUCUCGAGCAAGACGUUGUCAUAGUUCCAUUAAAGCCAAAAGUGGCUUUGAUGUUUCUAUGAUAAGGGUUUCGACCCGUGGCGUCGGGGAUCGCCUGCCCAUUGAAAUGGGCUUCUCCCCAUUUAUU
DNA 1: CACATCTCGAGCAAGACGTT
DNA 2: AACGTCTTGCTCGAGATGTG
B2: SGN000929 sgRNA ; SGN000929 target (ssRNA ; dsDNA)
RNA: AUCUGGAGGGAACUUACAGCAUAUGGUCAUAGUUCCAUGAAAGCCAAAAGUGGCUUUGAUGUUUCUAUGAUAAGGGUUUCGGCCCGUGGCGUCGGGGAUCGCCUGCCCAUUCCGAUGGGCUUCUCCCCAUUUAUU
DNA 1: ATCTGGAGGGAACTTACAGCATATG
DNA 2: CATATGCTGTAAGTTCCCTCCAGAT
B3: SGN001101 sgRNA ; SGN001101 target (ssRNA ; dsDNA)
RNA: AUAUUUUCUUUAAUGGUGCCAGGCAGUCAUAGUUCCAUUAAAGCCAAAAGUGGCUUUGAUGUUUCUAUGAUAAGGGUUUCGACCCGUGGCGUCGGGGAUCGCCUGCCCAUUGAAAUGGGCUUCUCCCCAU
DNA 1: ATATTTTCTTTAATGGTGCCAGGCA
DNA 2: TGCCTGGCACCATTAAAGAAAATAT

Target: T1, APG09980.1-L16-nAPG07433.1 (truncated deaminase) (synthetic)
T1 chain: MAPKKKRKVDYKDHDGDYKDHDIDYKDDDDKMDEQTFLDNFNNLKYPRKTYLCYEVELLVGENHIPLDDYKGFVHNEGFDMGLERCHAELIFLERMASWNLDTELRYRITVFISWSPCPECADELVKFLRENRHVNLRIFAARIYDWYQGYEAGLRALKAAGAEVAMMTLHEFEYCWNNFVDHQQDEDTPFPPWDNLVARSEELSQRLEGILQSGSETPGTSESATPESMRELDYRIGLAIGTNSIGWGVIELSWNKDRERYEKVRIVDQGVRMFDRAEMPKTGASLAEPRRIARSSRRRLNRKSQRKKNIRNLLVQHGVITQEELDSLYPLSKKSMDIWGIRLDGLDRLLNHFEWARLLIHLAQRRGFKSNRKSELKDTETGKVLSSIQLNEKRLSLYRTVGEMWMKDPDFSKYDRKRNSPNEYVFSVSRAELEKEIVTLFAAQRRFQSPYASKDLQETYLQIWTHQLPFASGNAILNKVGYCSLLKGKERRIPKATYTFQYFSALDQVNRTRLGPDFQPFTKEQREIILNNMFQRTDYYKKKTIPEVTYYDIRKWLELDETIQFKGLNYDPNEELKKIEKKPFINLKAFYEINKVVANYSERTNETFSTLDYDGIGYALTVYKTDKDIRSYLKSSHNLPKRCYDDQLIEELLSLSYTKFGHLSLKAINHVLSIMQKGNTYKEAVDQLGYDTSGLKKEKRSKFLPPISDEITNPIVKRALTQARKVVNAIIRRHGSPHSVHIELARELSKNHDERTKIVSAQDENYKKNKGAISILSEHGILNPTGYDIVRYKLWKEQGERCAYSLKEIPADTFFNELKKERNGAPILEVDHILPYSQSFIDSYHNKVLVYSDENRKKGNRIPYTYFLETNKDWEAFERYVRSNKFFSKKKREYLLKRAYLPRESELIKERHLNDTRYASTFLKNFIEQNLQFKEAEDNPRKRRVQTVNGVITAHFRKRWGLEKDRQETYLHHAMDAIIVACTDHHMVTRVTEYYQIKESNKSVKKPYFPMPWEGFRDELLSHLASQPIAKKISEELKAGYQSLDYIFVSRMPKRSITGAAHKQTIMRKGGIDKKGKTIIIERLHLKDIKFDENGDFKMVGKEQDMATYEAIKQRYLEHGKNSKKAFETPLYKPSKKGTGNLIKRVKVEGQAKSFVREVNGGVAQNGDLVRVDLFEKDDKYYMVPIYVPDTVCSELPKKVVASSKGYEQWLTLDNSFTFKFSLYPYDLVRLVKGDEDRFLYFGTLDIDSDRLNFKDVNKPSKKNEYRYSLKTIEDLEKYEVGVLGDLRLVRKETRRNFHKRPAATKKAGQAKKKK
Assay: cell_activity; HEK293FT; PAM SEQ 152
Conditions: tags: SV40 NLS, 3xFLAG N-term; nucleoplasmin NLS C-term
Description: 500 ng of plasmid comprising an expression cassette comprising a coding sequence for each fusion protein shown in Table 3 and 500 ng of plasmid comprising an expression cassette encoding an sgRNA shown in Table 4 were co-transfected into HEK293FT cells at 75-90% confluency in 24-well plates using Lipofectamine 2000 reagent (Life Technologies). Cells were then incubated at […] for 72 h. Following incubation, genomic DNA was then extracted using NucleoSpin 96 Tissue (Macherey-Nagel) following the manufacturer's protocol. The genomic region flanking the targeted genomic site was PCR amplified using the primers in Table 4 and products were purified using ZR-96 DNA Clean and Concentrator (Zymo Research) following the manufacturer's protocol. The purified PCR products were then sent for Next Generation Sequencing on Illumina MiSeq (2×250). Results were analyzed for INDEL formation or introduction of % specific cytosine mutations.
The position of each nucleotide in the target sequence was determined. “C17” indicates, for example, a cytosine at position 17 of the target sequence. The position of each nucleotide in the target sequence was determined by numbering the first nucleotide in the target sequence closest to the PAM as position 1, and the position number increases in the 3′ direction away from the PAM sequence.

Point of comparison: B3, activity 30.5 % mutated reads. Against it:
- B1 — lower, 24.1 % mutated reads
- B2 — lower, 25.9 % mutated reads
